Values of other authors as cited in paper PMC4792251.
Where two headings read alike, the source gives them in different places.

Key:
Mcl-1 (Homo sapiens) [1] = target: Mcl-1 (Homo sapiens) (UniProt Q07820)
[2] = target: BHRF1 (Epstein-Barr virus) (UniProt P03182)
Mcl-1 (Homo sapiens) [3] = target: Mcl-1 (Homo sapiens) (UniProt Q07820); remark: listed apart in the source

Sequence of UniProt Q07820 (Q07820 whole entry): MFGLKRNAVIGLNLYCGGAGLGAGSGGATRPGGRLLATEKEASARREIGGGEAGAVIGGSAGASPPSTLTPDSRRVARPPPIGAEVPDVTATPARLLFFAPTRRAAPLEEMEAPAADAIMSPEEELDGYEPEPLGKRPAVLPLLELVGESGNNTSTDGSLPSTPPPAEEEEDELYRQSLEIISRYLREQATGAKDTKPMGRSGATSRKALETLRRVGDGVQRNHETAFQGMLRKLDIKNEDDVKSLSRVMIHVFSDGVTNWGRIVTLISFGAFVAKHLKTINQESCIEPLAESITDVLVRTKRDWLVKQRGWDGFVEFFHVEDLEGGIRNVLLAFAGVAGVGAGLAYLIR
Sequence of Bid BH3 peptide (P55957 80-99): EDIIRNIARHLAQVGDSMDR
Sequence of UniProt P03182 (P03182 whole entry): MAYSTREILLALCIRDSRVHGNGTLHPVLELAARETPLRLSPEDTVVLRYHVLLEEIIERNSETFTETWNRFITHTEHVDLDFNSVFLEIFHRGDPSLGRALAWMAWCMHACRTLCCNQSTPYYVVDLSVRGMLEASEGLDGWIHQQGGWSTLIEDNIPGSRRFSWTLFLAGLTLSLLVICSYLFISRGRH
Sequence of Noxa B BH3 peptide (Q9JM54 68-87): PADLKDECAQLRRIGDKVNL

Kd (Mcl-1 (Homo sapiens) [3]) [nM]	Substance	Kd (Mcl-1 (Homo sapiens) [1]) [nM]	Kd [2] [nM]
–	Bid BH3 peptide	< 10	99
28	Noxa B BH3 peptide	–	–
